Assay results reported in article PMC8774185, “Open-Bundle Structure as the Unfolding Intermediate of Cytochrome c′ Revealed by Small Angle Neutron Scattering” (Biomolecules, 2022).
Values joined by “and” are separate entries in the source; they are usually repeats but may differ in a detail not shown here. Identical values can stand only once.

What was measured:
[1] = biological target: the molecule itself; test: small-angle neutron scattering (SANS); 5.5 mg/mL Cyt c′ in D2O, 20 mM phosphate buffer, pD 6.4; KWS-1 beam line; Rg and curve compared with those of the crystal dimer; MW ratio from I(0)/C against the pD 1.7 sample; dimer to monomers
[2] = biological target: the molecule itself; test: small-angle neutron scattering (SANS); 5.3 mg/mL Cyt c′ in D2O, 20 mM phosphate buffer, pD 9.6; KWS-1 beam line; Rg and curve compared with those of the crystal dimer; MW ratio from I(0)/C against the pD 1.7 sample; dimer to monomers

B1: Cytochrome c′ from Alcaligenes xylosoxidans NCIMB 11015 (natural protein, UniProt P00138 1-127, looked up)
chain: QFAKPEDAVKYRQSALTLMASHFGRMTPVVKGQAPYDAAQIKANVEVLKTLSALPWAAFGPGTEGGDARPEIWSDAASFKQKQQAFQDNIVKLSAAADAGDLDKLRAAFGDVGASCKACHDAYRKKK
modifications: heme prosthetic group embedded in the C-terminal region
notes: Cytochrome c′ (c-type cytochrome, four-α-helix bundle) of Alcaligenes xylosoxidans NCIMB 11015; helices A(Ala3-Lys31), B(Asp37-Phe59), C(Ala76-Asp98), D(Asp103-Arg124); His120 axial ligand; crystal structures PDB 4WGZ and 4WGY are of the same protein; also called Cyt c′; Cyt c'
[1]
  stoichiometry N: 2.1 and 2
[2]
  stoichiometry N: 1.9 and 1.8
